Measured values reported in patent US20260166139A1.
Where “and” joins values, the source holds several entries; their conditions need not be identical. Identical values can stand only once.

How the values were obtained:
murine CTLA4 (murine) = murine CTLA4 (murine) (UniProt P09793); test: ELISA on coated CTLA4, source Mouse (row of 8D2)
human CTLA4 (human) [1] = molecular target: human CTLA4 (human) (UniProt P16410); test: ELISA, coat human CTLA4 0.5 ug/ml; antibody 1 ug/ml
human CTLA4 (human) [2] = molecular target: human CTLA4 (human) (UniProt P16410); test: ELISA, coat human CTLA4 0.5 ug/ml; antibody 0 (blank)
human CTLA4 (human) [3] = molecular target: human CTLA4 (human) (UniProt P16410); test: ELISA on coated CTLA4, source Human (row of 8D2H2L15)
human CTLA4 (human) [4] = molecular target: human CTLA4 (human) (UniProt P16410); test: ELISA on coated CTLA4, source Human (row of 8D2H2L17)
CTLA4-mFc [5] = test: competitive ELISA, competitor B7-2; control run with 8D2
[6] = molecular target: monkey CTLA4-hFc (monkey); test: ELISA, coat monkey CTLA4-hFc 0.25 ug/ml; antibody 1 ug/ml
human CTLA4 (human) [7] = molecular target: human CTLA4 (human) (UniProt P16410); test: ELISA, coat CTLA4 0.5 ug/ml; antibody 1:3 (start 1 ug/ml)
human CTLA4 (human) [8] = molecular target: human CTLA4 (human) (UniProt P16410); test: ELISA, coat CTLA4 0.5 ug/ml; antibody 1:9 (start 1 ug/ml)
[9] = molecular target: CTLA4 antigen (NCBI Gene ID: 1493) obtained by TEV protease cleavage of CTLA4-mFc (Homo sapiens (Human)) (UniProt P16410); test: BLI (Fortebio), antibody on AR2G sensor, CTLA4 in solution
human CTLA4 (human) [10] = molecular target: human CTLA4 (human) (UniProt P16410); test: ELISA, coat CTLA4 0.5 ug/ml; antibody 1:27 (start 1 ug/ml)
CTLA4-mFc [11] = test: competitive ELISA, competitor B7-1; control run with 8D2H1L1
CTLA4-mFc [12] = test: competitive ELISA, competitor B7-2; control run with 8D2H1L1
CTLA4-mFc [13] = test: competitive ELISA, competitor B7-2; control run with 8D2H2L15
human CTLA4 (human) [14] = molecular target: human CTLA4 (human) (UniProt P16410); test: ELISA, coat human CTLA4 0.5 ug/ml; antibody 1:3 (start 1 ug/ml)
human CTLA4 (human) [15] = molecular target: human CTLA4 (human) (UniProt P16410); test: ELISA, coat human CTLA4 0.5 ug/ml; antibody 1:729 (start 1 ug/ml)
[16] = molecular target: monkey CTLA4-hFc (monkey); test: ELISA, coat monkey CTLA4-hFc 0.25 ug/ml; antibody 1:3 (start 1 ug/ml)
[17] = molecular target: monkey CTLA4-hFc (monkey); test: ELISA, coat monkey CTLA4-hFc 0.25 ug/ml; antibody 1:243 (start 1 ug/ml)
CTLA4-mFc [18] = test: competitive ELISA, CTLA4-mFc coated, competitor B7/2-His; antibody 1 µg/ml
CTLA4-mFc [19] = test: competitive ELISA, CTLA4-mFc coated, competitor B7/2-His; antibody 0 (no antibody)
CTLA4-mFc [20] = test: as above; remark: listed apart in the source
CTLA4-mFc [21] = test: competitive ELISA, B7/1-hFc coated (competitor), CTLA4-mFc added; antibody 5 µg/ml
CTLA4-mFc [22] = test: competitive ELISA, CTLA4-mFc coated, competitor B7/2-His; antibody 3 µg/ml diluted 1:3
CTLA4-mFc [23] = test: competitive ELISA, CTLA4-mFc coated, competitor B7/2-His; antibody 1 µg/ml diluted 1:3
CTLA4-mFc [24] = test: competitive ELISA, CTLA4-mFc coated, competitor B7/2-His; antibody 3 µg/ml diluted 1:81
CTLA4-mFc [25] = test: competitive ELISA, CTLA4-mFc coated, competitor B7/2-His; antibody 1 µg/ml diluted 1:27
CTLA4-mFc [26] = test: competitive ELISA, CTLA4-mFc coated, competitor B7/2-His; antibody 1 µg/ml diluted 1:81
CTLA4-mFc [27] = test: competitive ELISA, CTLA4-mFc coated, competitor B7/2-His; antibody 3 µg/ml diluted 1:243
CTLA4-mFc [28] = test: competitive ELISA, CTLA4-mFc coated, competitor B7/2-His; antibody 1.5 µg/ml diluted 1:3
CTLA4-mFc [29] = test: competitive ELISA, CTLA4-mFc coated, competitor B7/2-His; antibody 1 µg/ml diluted 1:243
CTLA4-mFc [30] = test: competitive ELISA, CTLA4-mFc coated, competitor B7/2-His; antibody 1.5 µg/ml diluted 1:729
CTLA4-mFc [31] = test: competitive ELISA, B7/1-hFc coated (competitor), CTLA4-mFc added; antibody 5 µg/ml diluted 1:3
CTLA4-mFc [32] = test: competitive ELISA, B7/1-hFc coated (competitor), CTLA4-mFc added; antibody 5 µg/ml diluted 1:81
CTLA4-mFc [33] = test: competitive ELISA, B7/1-hFc coated (competitor), CTLA4-mFc added; antibody 5 µg/ml diluted 1:243
CTLA4-mFc [34] = test: as above; remark: listed apart in the source
CTLA4-mFc [35] = test: competition ELISA, coat B7/1-hFc 0.2 ug/ml (competitor), CTLA4-mFc 0.3 ug/ml detected; antibody 0 (no antibody)
CTLA4-mFc [36] = test: competition ELISA, coat B7/1-hFc 0.2 ug/ml (competitor), CTLA4-mFc 0.3 ug/ml detected; antibody 1:729 (start 3 ug/ml)

Sequence of CTLA4-mFc (chain, as listed by the source limits assumed): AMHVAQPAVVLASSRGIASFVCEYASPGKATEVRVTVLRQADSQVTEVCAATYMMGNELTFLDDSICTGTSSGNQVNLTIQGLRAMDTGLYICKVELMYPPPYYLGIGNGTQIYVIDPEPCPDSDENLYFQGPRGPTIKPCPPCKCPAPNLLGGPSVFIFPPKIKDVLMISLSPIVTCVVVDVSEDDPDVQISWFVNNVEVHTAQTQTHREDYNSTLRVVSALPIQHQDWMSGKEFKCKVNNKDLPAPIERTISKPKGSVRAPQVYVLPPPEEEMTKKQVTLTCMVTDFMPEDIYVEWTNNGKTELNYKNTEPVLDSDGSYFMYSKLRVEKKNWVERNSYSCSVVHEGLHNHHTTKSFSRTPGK
Sequence of human CTLA4 (human) (P16410 36-161 limits assumed): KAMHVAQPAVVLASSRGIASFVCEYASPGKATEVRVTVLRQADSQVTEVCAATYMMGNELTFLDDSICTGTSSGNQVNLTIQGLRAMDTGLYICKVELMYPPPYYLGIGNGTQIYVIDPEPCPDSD
Sequence of CTLA4 antigen (NCBI Gene ID: 1493) obtained by TEV protease cleavage of CTLA4-mFc (Homo sapiens (Human)) (P16410 37-161 limits assumed): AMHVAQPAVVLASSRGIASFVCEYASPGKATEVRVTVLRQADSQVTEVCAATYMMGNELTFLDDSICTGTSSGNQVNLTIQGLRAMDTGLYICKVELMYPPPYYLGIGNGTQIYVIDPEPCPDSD
Sequence of control antibody 11.2.1 (VH): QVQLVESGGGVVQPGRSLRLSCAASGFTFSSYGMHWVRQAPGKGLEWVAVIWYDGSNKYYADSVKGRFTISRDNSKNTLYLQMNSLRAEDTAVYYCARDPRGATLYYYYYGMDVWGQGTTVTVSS
Sequence of control antibody 11.2.1 (VL): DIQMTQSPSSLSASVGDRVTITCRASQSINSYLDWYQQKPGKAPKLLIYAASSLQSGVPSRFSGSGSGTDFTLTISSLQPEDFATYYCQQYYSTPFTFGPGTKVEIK

Substance: control antibody 11.2.1
- EC50 (murine CTLA4 (murine)): 0.023 nM
- absorbance at 450 nm (human CTLA4 (human) [1]): 2.21 and 2.15
- absorbance at 450 nm (human CTLA4 (human) [2]): 0.072 and 0.064
- EC50 (human CTLA4 (human) [3]): 0.075 nM
- EC50 (human CTLA4 (human) [4]): 0.075 nM
- EC50 (CTLA4-mFc [5]): 0.15 nM
- absorbance at 450 nm [6]: 1.72 and 1.63
- absorbance at 450 nm (human CTLA4 (human) [7]): 2.56 and 2.66
- absorbance at 450 nm (human CTLA4 (human) [8]): 2.69 and 2.44
- Kd [9]: 0.903 nM
- koff [9]: 0.000349 s⁻¹
- kon [9]: 387000 M⁻¹ s⁻¹
- absorbance at 450 nm (human CTLA4 (human) [10]): 2.13 and 2.28
- EC50 (CTLA4-mFc [11]): 1.69 nM
- EC50 (CTLA4-mFc [12]): 0.15 nM
- EC50 (CTLA4-mFc [13]): 0.349 nM
- absorbance at 450 nm (human CTLA4 (human) [14]): 1.82 and 2.05
- absorbance at 450 nm (human CTLA4 (human) [15]): 0.127 and 0.136
- absorbance at 450 nm [16]: 1.54 and 1.46
- absorbance at 450 nm [17]: 0.13 and 0.172
- absorbance at 450 nm (CTLA4-mFc [18]): 0.04
- absorbance at 450 nm (CTLA4-mFc [19]): 1.19 and 1.1
- absorbance at 450 nm (CTLA4-mFc [20]): 0.987 and 0.819
- absorbance at 450 nm (CTLA4-mFc [21]): 0.06
- absorbance at 450 nm (CTLA4-mFc [22]): 0.387 and 0.402
- absorbance at 450 nm (CTLA4-mFc [23]): 0.05
- absorbance at 450 nm (CTLA4-mFc [24]): 1.12 and 0.965
- absorbance at 450 nm (CTLA4-mFc [25]): 0.57
- absorbance at 450 nm (CTLA4-mFc [26]): 0.84 and 0.76
- absorbance at 450 nm (CTLA4-mFc [27]): 1.24 and 1.21
- absorbance at 450 nm (CTLA4-mFc [28]): 0.437 and 0.348
- absorbance at 450 nm (CTLA4-mFc [29]): 0.84 and 0.85
- absorbance at 450 nm (CTLA4-mFc [30]): 0.981 and 0.746
- absorbance at 450 nm (CTLA4-mFc [31]): 0.09 and 0.097
- absorbance at 450 nm (CTLA4-mFc [32]): 1.17 and 1.2
- absorbance at 450 nm (CTLA4-mFc [33]): 0.755 and 0.9
- absorbance at 450 nm (CTLA4-mFc [34]): 1.3 and 1.31
- absorbance at 450 nm (CTLA4-mFc [35]): 0.826 and 0.55
- absorbance at 450 nm (CTLA4-mFc [36]): 0.993 and 0.841
